Reference: the supplement of paper PMC7877785
± gives the uncertainty stated by the source.

Assay: self-splicing fitness, log relative to wild type (ln ratio); higher = more splicing; Tetrahymena group I intron in knt gene, E. coli kanamycin selection, DiMSum; sequences stand for … in CUCUCU…GGAGGGAAAAGUUAUCAGGCAUGCACCUGGUAGCUAGUCUUUAAACCAAUAGAUUGCAUCGGUUUAAAAGGCAAGACCGUCAAAUUGCGGGAAAGGGGUCAACAGCCGUUCAGUACCAAGUCUCAGGGGAAACUUUGAGAUGGCCUUGCAAAGGGUAUGGUAAUAAGCUGACGGACAUGGUCCUAACCACGCAGCCAAGUCCUAAGUCAACAGAUCUUCUGUUGAUAUGGAUGCAGUUCACAGACUAAAUGUCGGUCGGGGAAGAUGUAUUCUUCUCAUAAGAUAUAGUCGGACCUCUCCUUAAUGGGAGCUAGCGGAUGAAGUGAUGCAACACUGGAGCCGCUGGGAACUAAUUUGUAUGCGAAAGUAUAUUGAUUAGUUUUGGAGUACUCGUGGUCG
Outline: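 The eight P1ex-region nucleotides of an intron in the knt kanamycin-resistance gene on pET-22b(+) were all randomised and the library put into E. coli BL21(DE3). Six replicate transformations were grown overnight at 37°C or 30°C on LB agar with or without 25 μg/mL kanamycin, together with 100 μg/mL carbenicillin, 50 μM IPTG and 0.2% rhamnose. Colonies were pooled and amplicon-sequenced on an Illumina HiSeq 2500. Fitness from DiMSum is the error-weighted combination of wild-type-normalised replicate fold changes, kanamycin over none.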

Sequence | self-splicing fitness (ln) (30 °C) | self-splicing fitness (ln) (37 °C)
CUUGAGCAAUAUUACGGUUA | -2.25 ± 0.15 | -3.21 ± 0.3
AUGUAGCAAUAUUACGCUCC | -0.373 ± 0.28 | -0.973 ± 0.45
GCCGAGCAAUAUUACGGCCC | -2.4 ± 0.19 | -1.93 ± 0.24
CUUAAGCAAUAUUACGAGCG | -0.691 ± 0.1 | -0.156 ± 0.15
UUUUAGCAAUAUUACGAUAU | -2.66 ± 0.22 | -1.42 ± 0.28
GGGGAGCAAUAUUACGAGGU | -3.44 ± 0.22 | -1.82 ± 0.26
ACCAAGCAAUAUUACGGGCU | -1.12 ± 0.058 | -1.16 ± 0.083
CCCCAGCAAUAUUACGUCGG | -3.66 ± 0.16 | -2.86 ± 0.33
GAUUAGCAAUAUUACGUAUC |  | -2.77 ± 0.36
UGAAAGCAAUAUUACGCUGG | -2.59 ± 0.16 | -1.27 ± 0.19
GUGUAGCAAUAUUACGAGGU | -2.33 ± 0.44 | -1.61 ± 0.49
CAAUAGCAAUAUUACGUCCU | -3.78 ± 0.42 | -2.4 ± 0.28
AUUUAGCAAUAUUACGUAUA | -2.53 ± 0.34 | -1.48 ± 0.21
AACUAGCAAUAUUACGUCAG | -3.51 ± 0.18 | -1.57 ± 0.15
GAUUAGCAAUAUUACGCCCC | -1.52 ± 0.46 | -0.314 ± 0.48
AACAAGCAAUAUUACGUCGA | -1.27 ± 0.087 | -0.532 ± 0.092
UAGGAGCAAUAUUACGCUCA | -1.55 ± 0.19 | -1.37 ± 0.16
ACAGAGCAAUAUUACGUUGC | -2.78 ± 0.18 | 
UGUCAGCAAUAUUACGUCCU | -0.0922 ± 0.06 | -0.325 ± 0.073
GCGUAGCAAUAUUACGCAAA | -2.37 ± 0.33 | -3.44 ± 0.42
GUUGAGCAAUAUUACGGUAU | -4.2 ± 0.23 | -1.71 ± 0.13
AGCGAGCAAUAUUACGUUAA | -3.86 ± 0.37 | -2.67 ± 0.3
GCAUAGCAAUAUUACGACUU | -0.481 ± 0.078 | -0.0367 ± 0.089
UUCAAGCAAUAUUACGAGCG | -1.3 ± 0.087 | -0.359 ± 0.099

Sequence | self-splicing fitness (ln) (30 °C) | self-splicing fitness (ln) (37 °C)
CUGCAGCAAUAUUACGGGUU | -3.86 ± 0.17 | -2.74 ± 0.14
CCUGAGCAAUAUUACGAAAA | -3.64 ± 0.35 | -2.52 ± 0.37
UUAGAGCAAUAUUACGAUGC | -2.04 ± 0.21 | -2.57 ± 0.41
UAAAAGCAAUAUUACGCUCU | -1.02 ± 0.12 | -0.11 ± 0.14
GGAUAGCAAUAUUACGCCCU | -2.08 ± 0.14 | -2.27 ± 0.17
GCUCAGCAAUAUUACGUGUC | -1.55 ± 0.078 | -0.662 ± 0.081
UAUGAGCAAUAUUACGUGUG | -2.41 ± 0.097 | -1.1 ± 0.085
GUCAAGCAAUAUUACGGGUA | -2.91 ± 0.12 | -1.45 ± 0.076
GGAUAGCAAUAUUACGUAUA | -2.53 ± 0.2 | -0.564 ± 0.15
AAAGAGCAAUAUUACGGCCU | -2.16 ± 0.13 | -0.199 ± 0.13
GGUAAGCAAUAUUACGUGAA | -1.52 ± 0.098 | -1.18 ± 0.14
AGGGAGCAAUAUUACGGCGU | -2.04 ± 0.12 | -1.05 ± 0.11
GUCGAGCAAUAUUACGAUCU | -2.87 ± 0.18 | -0.451 ± 0.12
AAGAAGCAAUAUUACGCGGC | -3.5 ± 0.49 | -2.17 ± 0.44
AGCCAGCAAUAUUACGGGCG | -2.66 ± 0.1 | -0.918 ± 0.1
CUAGAGCAAUAUUACGGCAG | 0.0667 ± 0.08 | 0.49 ± 0.11
GAUUAGCAAUAUUACGCGUG | -1.23 ± 0.091 | 0.595 ± 0.11
UGUUAGCAAUAUUACGACGG | -0.352 ± 0.16 | -0.218 ± 0.18
UACCAGCAAUAUUACGGCUG | -3.63 ± 0.14 | -2 ± 0.15
CAUAAGCAAUAUUACGACUC | -3.48 ± 0.34 | -0.925 ± 0.14
AGCGAGCAAUAUUACGAGUC | -3.91 ± 0.42 | -2.24 ± 0.24
UUAUAGCAAUAUUACGACCU | -3.38 ± 0.29 | -0.509 ± 0.18
UCAUAGCAAUAUUACGCUGC | -3.13 ± 0.31 | -2.52 ± 0.41
